Experimental data from publication PMC8184850, “Cryo-EM structure of TFIIH/Rad4–Rad23–Rad33 in damaged DNA opening in nucleotide excision repair” (Nature Communications, 2021).

Experiments:
Conditions in all cases: both partners purified
Rad3 = biological target: T1, Rad3 (yeast, UniProt P06839 1-778); experiment: cryo-EM structure; coreTFIIH and Rad4–Rad23–Rad33 on −24*/+24 AAF-DNA with ATP, glycerol gradient with glutaraldehyde; Map 1 3.86 Å (TFIIH), Map 2 9.2 Å, Map 3 7.9 Å; Rad4, Rad33 and the Tfb1 PH domain placed by rigid-body docking of known structures or homology models
T1 construct: Rad3 (XPD homologue), subunit of yeast coreTFIIH; Stood in the assays as part of coreTFIIH; also called yeast homologue of XPD; source: purified from yeast as a subunit of coreTFIIH
T1 sequence (looked up): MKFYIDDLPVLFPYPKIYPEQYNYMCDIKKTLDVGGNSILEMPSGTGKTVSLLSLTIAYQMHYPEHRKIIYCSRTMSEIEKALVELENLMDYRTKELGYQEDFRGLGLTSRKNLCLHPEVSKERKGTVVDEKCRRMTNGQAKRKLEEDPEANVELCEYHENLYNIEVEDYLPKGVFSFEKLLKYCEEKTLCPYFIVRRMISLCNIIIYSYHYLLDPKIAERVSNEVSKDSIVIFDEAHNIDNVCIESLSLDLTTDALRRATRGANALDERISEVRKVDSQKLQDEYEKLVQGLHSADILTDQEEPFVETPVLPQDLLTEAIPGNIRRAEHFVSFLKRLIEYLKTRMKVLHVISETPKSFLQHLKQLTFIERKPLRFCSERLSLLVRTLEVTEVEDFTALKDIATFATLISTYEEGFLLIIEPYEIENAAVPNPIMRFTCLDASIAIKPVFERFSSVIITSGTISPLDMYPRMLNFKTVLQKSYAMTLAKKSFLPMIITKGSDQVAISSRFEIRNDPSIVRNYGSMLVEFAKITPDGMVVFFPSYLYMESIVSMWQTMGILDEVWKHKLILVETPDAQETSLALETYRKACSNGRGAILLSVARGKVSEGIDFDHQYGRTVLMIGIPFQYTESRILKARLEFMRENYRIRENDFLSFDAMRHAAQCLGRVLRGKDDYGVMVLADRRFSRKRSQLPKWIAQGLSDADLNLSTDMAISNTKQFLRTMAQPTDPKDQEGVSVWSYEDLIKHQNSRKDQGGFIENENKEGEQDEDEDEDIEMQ

Rad4 = biological target: T2, Rad4 (yeast, UniProt P14736 1-754); experiment: as above
T2 construct: Rad4 (XPC homologue), yeast; Stood in the assays as part of Rad4–Rad23–Rad33; written alone for the contacts of the subunit; also called yeast homologue of XPC; source: Hi5 insect cells, co-expressed with Rad23, purified as the Rad4–Rad23 complex
T2 sequence (looked up): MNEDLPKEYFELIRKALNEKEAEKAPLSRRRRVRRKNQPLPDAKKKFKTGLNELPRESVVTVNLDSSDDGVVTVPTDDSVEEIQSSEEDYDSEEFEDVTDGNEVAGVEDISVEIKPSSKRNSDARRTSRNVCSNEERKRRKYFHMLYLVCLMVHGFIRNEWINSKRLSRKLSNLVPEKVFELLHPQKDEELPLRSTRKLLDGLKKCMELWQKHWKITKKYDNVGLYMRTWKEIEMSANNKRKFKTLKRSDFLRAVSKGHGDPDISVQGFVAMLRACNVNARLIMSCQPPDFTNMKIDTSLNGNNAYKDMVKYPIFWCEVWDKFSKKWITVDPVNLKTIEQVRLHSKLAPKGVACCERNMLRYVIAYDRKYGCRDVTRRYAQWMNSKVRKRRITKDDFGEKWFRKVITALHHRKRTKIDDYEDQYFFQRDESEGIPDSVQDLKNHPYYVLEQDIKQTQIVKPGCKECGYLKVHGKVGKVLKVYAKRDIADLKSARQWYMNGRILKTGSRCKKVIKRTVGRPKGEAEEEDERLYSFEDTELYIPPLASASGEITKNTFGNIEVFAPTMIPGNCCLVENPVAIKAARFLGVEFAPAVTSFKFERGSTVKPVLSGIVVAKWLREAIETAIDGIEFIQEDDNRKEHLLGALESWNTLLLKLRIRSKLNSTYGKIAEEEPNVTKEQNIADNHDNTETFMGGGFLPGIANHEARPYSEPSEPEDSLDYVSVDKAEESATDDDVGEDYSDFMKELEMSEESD

Rad4–Rad23–Rad33 complex = biological target: T3, Rad4–Rad23–Rad33 complex (yeast, UniProt P14736 1-754; P32628 1-398; Q04231 1-177); experiment: cross-linking; XL-MS: TFIIH/Rad4–Rad23–Rad33 assembled on −24/+24 AAF-DNA, 1 mg/mL in 20 mM HEPES pH 7.6, 300 mM potassium acetate, 5% glycerol, 5 mM DTT; 6 mM DSBU on ice 2 h; MeroX, FDR <1%
T3 construct: Rad4 (XPC homologue), yeast; Rad23 (RAD23B homologue), yeast; Rad33 (CETN2 homologue), yeast; plasmid pETDuet-RAD33; also called Rad4–23–33; yeast homologue of XPC–RAD23B–CETN2; copies: + +
T3 sequence 1: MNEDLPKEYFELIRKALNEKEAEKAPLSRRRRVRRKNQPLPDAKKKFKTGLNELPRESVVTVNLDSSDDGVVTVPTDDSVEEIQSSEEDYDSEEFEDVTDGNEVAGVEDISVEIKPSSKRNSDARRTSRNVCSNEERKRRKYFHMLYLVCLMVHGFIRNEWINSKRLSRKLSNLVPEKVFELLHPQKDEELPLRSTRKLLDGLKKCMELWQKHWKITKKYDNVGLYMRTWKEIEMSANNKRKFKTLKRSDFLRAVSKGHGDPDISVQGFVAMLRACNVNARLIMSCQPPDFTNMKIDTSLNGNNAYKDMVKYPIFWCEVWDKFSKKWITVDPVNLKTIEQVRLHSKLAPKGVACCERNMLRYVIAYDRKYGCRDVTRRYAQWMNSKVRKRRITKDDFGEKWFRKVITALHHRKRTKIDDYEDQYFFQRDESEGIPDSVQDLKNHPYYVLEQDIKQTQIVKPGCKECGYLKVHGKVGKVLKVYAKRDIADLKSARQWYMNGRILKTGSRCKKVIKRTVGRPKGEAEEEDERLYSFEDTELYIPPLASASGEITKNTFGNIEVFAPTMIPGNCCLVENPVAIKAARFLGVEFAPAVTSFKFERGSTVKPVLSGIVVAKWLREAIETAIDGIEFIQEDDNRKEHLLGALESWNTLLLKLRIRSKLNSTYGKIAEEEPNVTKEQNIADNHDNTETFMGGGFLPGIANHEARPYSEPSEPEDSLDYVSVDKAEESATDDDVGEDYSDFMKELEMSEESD
T3 sequence 2: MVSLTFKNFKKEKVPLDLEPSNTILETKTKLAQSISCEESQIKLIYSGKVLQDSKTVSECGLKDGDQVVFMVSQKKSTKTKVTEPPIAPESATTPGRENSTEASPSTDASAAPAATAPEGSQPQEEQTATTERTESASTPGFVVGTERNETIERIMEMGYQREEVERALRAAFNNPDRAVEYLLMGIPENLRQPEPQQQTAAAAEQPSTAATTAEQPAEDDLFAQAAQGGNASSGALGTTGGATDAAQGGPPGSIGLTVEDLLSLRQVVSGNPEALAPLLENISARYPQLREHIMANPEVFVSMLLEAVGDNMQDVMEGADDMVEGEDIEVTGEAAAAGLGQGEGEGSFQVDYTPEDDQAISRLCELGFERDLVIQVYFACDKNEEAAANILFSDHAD
T3 sequence 3: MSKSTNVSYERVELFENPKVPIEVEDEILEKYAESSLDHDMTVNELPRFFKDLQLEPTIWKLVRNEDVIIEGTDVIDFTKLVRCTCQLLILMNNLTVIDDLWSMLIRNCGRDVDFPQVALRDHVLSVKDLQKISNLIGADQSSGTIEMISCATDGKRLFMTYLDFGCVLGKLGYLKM

Measured: binding result

B1: Tfb1 (natural protein, yeast, UniProt P32776 1-642, looked up)
chain: MSHSGAAIFEKVSGIIAINEDVSPAELTWRSTDGDKVHTVVLSTIDKLQATPASSEKMMLRLIGKVDESKKRKDNEGNEVVPKPQRHMFSFNNRTVMDNIKMTLQQIISRYKDADIYEEKRRREESAQHTETPMSSSSVTAGTPTPHLDTPQLNNGAPLINTAKLDDSLSKEKLLTNLKLQQSLLKGNKVLMKVFQETVINAGLPPSEFWSTRIPLLRAFALSTSQKVGPYNVLSTIKPVASSENKVNVNLSREKILNIFENYPIVKKAYTDNVPKNFKEPEFWARFFSSKLFRKLRGEKIMQNDRGDVIIDRYLTLDQEFDRKDDDMLLHPVKKIIDLDGNIQDDPVVRGNRPDFTMQPGVDINGNSDGTVDILKGMNRLSEKMIMALKNEYSRTNLQNKSNITNDEEDEDNDERNELKIDDLNESYKTNYAIIHLKRNAHEKTTDNDAKSSADSIKNADLKVSNQQMLQQLSLVMDNLINKLDLNQVVPNNEVSNKINKRVITAIKINAKQAKHNNVNSALGSFVDNTSQANELEVKSTLPIDLLESCRMLHTTCCEFLKHFYIHFQSGEQKQASTVKKLYNHLKDCIEKLNELFQDVLNGDGESMSNTCTAYLKPVLNSITLATHKYDEYFNEYNNNSN
notes: Tfb1 (p62 homologue), subunit of yeast coreTFIIH; Stood in the assays as part of coreTFIIH; also called yeast homologue of p62; source: purified from yeast as a subunit of coreTFIIH
binds: all assays above
